Residue numbers refer to the chain shown, from its start.
Assays:
[1] = biological target: Human EphA2-Fc fusion protein (human EphA2 fused with the Fc portion of a human IgG1) (human) (UniProt P29317); test: single point ELISA: 1 ug goat anti-human Fd capture, biotinylated human EphA2-Fc 300-600 ng/well, neutravidin-HRP
[2] = biological target: Human EphA2-Fc fusion protein (human EphA2 fused with the Fc portion of a human IgG1) (human) (UniProt P29317); test: single point ELISA: periplasmic Fab captured on 500 ng goat anti-human Fab, biotinylated human EphA2-Fc 300 ng/well, neutravidin-HRP
[3] = biological target: Human EphA2-Fc fusion protein (human EphA2 fused with the Fc portion of a human IgG1) (human) (UniProt P29317); test: SPR (BIAcore), human IgG1 format on immobilized EphA2-Fc
[4] = biological target: Human EphA2-Fc fusion protein (human EphA2 fused with the Fc portion of a human IgG1) (human) (UniProt P29317); test: SPR (BIAcore 3000), EphA2-Fc amine-coupled to CM5 chip, IgG in solution, 25 C, KD = koff/kon
[5] = biological target: Human EphA2-Fc fusion protein (human EphA2 fused with the Fc portion of a human IgG1) (human) (UniProt P29317); test: SPR (BIAcore 3000), EphA2-Fc amine-coupled to CM5 chip, IgG in solution, 25 C, 1:1 Langmuir fit
[6] = biological target: Human EphA2-Fc fusion protein (human EphA2 fused with the Fc portion of a human IgG1) (human) (UniProt P29317); test: SPR (BIAcore 3000), EphA2-Fc amine-coupled to CM5 chip (about 500 RU), IgG in solution, 25 C, KD = koff/kon
[7] = biological target: Human EphA2-Fc fusion protein (human EphA2 fused with the Fc portion of a human IgG1) (human) (UniProt P29317); test: SPR (BIAcore 3000), EphA2-Fc amine-coupled to CM5 chip (about 500 RU), IgG in solution, 25 C, 1:1 Langmuir fit
[8] = biological target: Human EphA2-Fc fusion protein (human EphA2 fused with the Fc portion of a human IgG1) (human) (UniProt P29317); test: single point ELISA: periplasmic extract of 45 ml culture, 1 ug/well goat anti-human Fd capture, biotinylated EphA2-Fc
[9] = biological target: Human EphA2-Fc fusion protein (human EphA2 fused with the Fc portion of a human IgG1) (human) (UniProt P29317); test: second single point ELISA: periplasmic extract of 15 ml culture, 1 ug/well goat anti-human Fd capture, biotinylated EphA2-Fc
[10] = biological target: Human EphA2-Fc fusion protein (human EphA2 fused with the Fc portion of a human IgG1) (human) (UniProt P29317); test: single point ELISA: periplasmic Fab captured on 1 ug goat anti-human Fd, biotinylated human EphA2-Fc 300-600 ng/well, neutravidin-HRP
[11] = biological target: T1, Human EphA2-Fc fusion protein (human EphA2 fused with the Fc portion of a human IgG1) (human, UniProt P29317 24-534, limits assumed); test: SPR (BIAcore 3000), EphA2-Fc amine-coupled to CM5 chip (about 500 RU), IgG in solution, 25 C, KD = koff/kon
T1 construct: also called biotinylated human EphA2-Fc; not shown: Fc portion of a human IgG1

[12] = biological target: T1, Human EphA2-Fc fusion protein (human …); test: SPR (BIAcore 3000), EphA2-Fc amine-coupled to CM5 chip (about 500 RU), IgG in solution, 25 C, 1:1 Langmuir fit

T1 sequence (P29317 24-534 limits assumed): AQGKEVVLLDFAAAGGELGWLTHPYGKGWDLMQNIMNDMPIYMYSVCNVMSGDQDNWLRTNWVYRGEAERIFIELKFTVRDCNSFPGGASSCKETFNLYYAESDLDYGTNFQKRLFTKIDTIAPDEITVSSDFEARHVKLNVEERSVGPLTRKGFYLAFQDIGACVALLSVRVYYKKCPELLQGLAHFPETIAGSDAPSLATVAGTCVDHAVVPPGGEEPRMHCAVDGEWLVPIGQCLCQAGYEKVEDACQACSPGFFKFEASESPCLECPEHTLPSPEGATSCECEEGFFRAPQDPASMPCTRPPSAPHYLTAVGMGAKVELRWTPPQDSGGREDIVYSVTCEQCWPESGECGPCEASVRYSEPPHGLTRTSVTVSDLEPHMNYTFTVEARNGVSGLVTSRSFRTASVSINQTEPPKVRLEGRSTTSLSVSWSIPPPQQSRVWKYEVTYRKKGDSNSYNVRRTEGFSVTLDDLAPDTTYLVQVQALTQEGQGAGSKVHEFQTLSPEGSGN
Sequence of Human EphA2-Fc fusion protein (human EphA2 fused with the Fc portion of a human IgG1) (human) (P29317 24-534 limits assumed): as above

Molecule irrelevant antibody (Example 2) has an OD450 (background signal) [1] of 0.3 OD450.

B1: Fab clone VH-6H11/VL-8G7 (Fab, from another filing, V domains shown)
VH: EVQLVESGGGLVQPGGSLRLSCAASGFTFSDYSMNWVRQAPGKGLEWVAFIRNKANDYTTEYSASVKGRFTISRDNSKNTLYLQMNSLRAEDTAMYYCARYPRYHAMDSWGQGTLVTVSS
VL: EIVLTQSPATLSVSPGERATLSCRASQSISNNLHWYQQKPGKAPKSLIYYVFQSISGVPSRFSGSGSGTDFTLTINSLEAEDAATYYCQQSNSWPLTFGGGTKVDIK
B1 gave an OD450 [2] of 2.5 OD450.

B2: VH-6H11/VL-8G7 as full length human IgG1 (antibody, from another filing, V domains shown)
VH: B1 VH
VL: B1 VL
Molecule B2 has a fold decrease of avidity against parental mAb B233 [3] of 6 fold, a Kd [4] of 1.9 nM and a koff [5] of 0.00018 s⁻¹. For the same molecule, the kon [5] was 96000 M⁻¹ s⁻¹.

B3: VH-4H5/VL-4H5 as human IgG1 (antibody, from another filing, V domains shown)
VH: QVQLLESGGGLVQPGGSLRLSCAASGFTFSSYTMSWVRQAPGQALEWMGTISSGGTYTYYPDSVKGRFTISRDNAKNSLYLQMNSLRAEDTAVYYCAREAIFTYWGRGTLVTVSS
VL: DIQLTQSPSSLSASVGDRVTITCKASQDINNYLSWYQQKPGQAPRLLIYRANRLVDGVPDRFSGSGYGTDFTLTINNIESEDAAYYFCLKYDVFPYTFGQGTKVEIK
In the case of B3, the fold increase of avidity against parental mAb EA2 [3] is reported as 90 fold.

B4: VH-4H5/VL-"corrected" 4H5 as human IgG1 (antibody, from another filing, V domains shown)
VH: B3 VH
VL: B3 VL with V93E
Work on B4 yielded a fold increase of avidity against parental mAb EA2 [3] of 4 fold, a Kd [6] of 1.4 nM and a koff [7] of 0.00105 s⁻¹. The kon [7] was 750000 M⁻¹ s⁻¹.

B5: Fab "corrected" clone 4H5 (VH-4H5/VL-"corrected" 4H5) (Fab, from another filing, V domains shown)
VH: B3 VH
VL: B3 VL with V93E
Molecule B5 has a [specific OD450/background OD450] ratio [8] of 11.

B6: Fab clone 4H5 (VH-4H5/VL-4H5) (Fab, from another filing, V domains shown)
VH: B3 VH
VL: B3 VL
For B6, the [specific OD450/background OD450] ratio [8] was 23, the [specific OD450/background OD450] ratio [9] was 30 and the OD450 [10] was 3 OD450. It also gave a fold signal above background of the irrelevant antibody [10] of 10 fold.

B7: Fab clone VH-2G6/VL-12C8 (Fab, from another filing, V domains shown)
VH: EVQLVESGGGVVRPGGSLRLSCAASGFTVSDYSMNWVRQAPGKGLEWIGFIRNKANDYTTEYSASVKGRFTISRDDSKNTLYLQMNSLKTEDTAVYYCTTYPRYHAMDSWGQGTMVTVSS
VL: AIQLTQSPSSLSASVGDRVTITCRASQSISNNLHWYLQKPGQSPQLLIYYVFQSISGVPSRFSGSGSGTDFTLTISSLQPEDFATYYCQQSNSWPLTFGGGTKLEIK
Molecule B7 has an OD450 [2] of 2.8 OD450.

B8: VH-2G6/VL-12C8 as full length human IgG1 (antibody, from another filing, V domains shown)
VH: B7 VH
VL: B7 VL
With B8 the fold decrease of avidity against parental mAb B233 [3] was 10 fold, the Kd [4] was 3 nM and the koff [5] was 0.00019 s⁻¹. For the same molecule, the kon [5] was 64000 M⁻¹ s⁻¹.

B9: mAb EA2 (murine anti-human EphA2 monoclonal antibody) (antibody, V domains shown)
VH: DVKLVESGGGLVKPGGSLKLSCAASGFTFSSYTMSWVRQTPEKRLEWVATISSGGTYTYYPDSVKGRFTISRDNAKNTLYLQMSSLKSEDTAMYYCTREAIFTYWGQGTLVTVSA
VL: DIKMTQSPSSMYASLGERVTITCKASQDINNYLSWFQQKPGKSPKTLIYRANRVDGVPSRFSGSGSGQDYSLTISSLEYEDMGIYYCLKYDEFPYTFGGGTKLEIK
B9 showed a Kd [11] of 5.94 nM, a koff [12] of 0.00307 s⁻¹ and a kon [12] of 517000 M⁻¹ s⁻¹.

— patent publication EP1869192B1 (MedImmune, LLC, dated 2016)
